These results are taken from patent US20250154217A1 (ZONHON BIOPHARMA INSTITUTE, published 2025).

As a reminder, the Kd is the constant that tells how readily two partners part at equilibrium. A low value points to a tighter complex.

Holding throughout (assay): BLI (Fortebio)
For one assay, the target named is T1, IL-2Rα(CD25) (UniProt P01589 22-213, limits assumed).
T1 construct: also called IL-2α
T1 sequence (looked up): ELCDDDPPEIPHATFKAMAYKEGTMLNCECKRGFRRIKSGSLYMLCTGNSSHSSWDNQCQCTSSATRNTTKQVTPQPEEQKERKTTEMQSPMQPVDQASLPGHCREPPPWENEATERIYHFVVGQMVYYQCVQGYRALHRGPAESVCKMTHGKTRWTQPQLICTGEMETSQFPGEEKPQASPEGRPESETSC
On the procedure: (§1) The affinity between IL-2 mutants and their receptors was detected by Bio-Layer Interferometry (BLI).
(§2) Receptor solution: IL-2Rα(CD25), IL-2Rβ(CD122) and IL-2Rβ/γ receptor samples were diluted to 15-20 μg/mL with 1×Kinetics buffer, mixed and stored in a dark place.
(§3) Samples were added to the sample wells according to the protocol design, and 200 μL of reagent or sample was added to each well.

A further assay addresses T2, IL-2Rβ(CD122) (UniProt P14784 27-239, limits assumed).
T2 construct: also called IL-2β
T2 sequence (looked up): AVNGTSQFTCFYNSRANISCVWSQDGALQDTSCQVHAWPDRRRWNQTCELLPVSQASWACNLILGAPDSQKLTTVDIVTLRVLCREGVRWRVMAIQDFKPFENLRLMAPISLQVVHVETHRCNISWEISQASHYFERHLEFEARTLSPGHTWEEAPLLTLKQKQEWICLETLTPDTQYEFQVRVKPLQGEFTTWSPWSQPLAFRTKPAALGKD
As for the experimental part: as §1, §2, §3

The target in another assay is T3, IL-2Rβ/γ receptor (UniProt P14784 27-239; P31785 23-262, limits assumed).
T3 sequence (looked up) 1: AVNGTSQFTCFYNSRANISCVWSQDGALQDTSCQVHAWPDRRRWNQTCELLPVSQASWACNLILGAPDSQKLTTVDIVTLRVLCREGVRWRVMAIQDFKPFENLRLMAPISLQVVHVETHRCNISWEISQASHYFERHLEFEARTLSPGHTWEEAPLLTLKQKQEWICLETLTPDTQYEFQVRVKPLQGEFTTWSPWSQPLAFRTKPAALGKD
T3 sequence (looked up) 2: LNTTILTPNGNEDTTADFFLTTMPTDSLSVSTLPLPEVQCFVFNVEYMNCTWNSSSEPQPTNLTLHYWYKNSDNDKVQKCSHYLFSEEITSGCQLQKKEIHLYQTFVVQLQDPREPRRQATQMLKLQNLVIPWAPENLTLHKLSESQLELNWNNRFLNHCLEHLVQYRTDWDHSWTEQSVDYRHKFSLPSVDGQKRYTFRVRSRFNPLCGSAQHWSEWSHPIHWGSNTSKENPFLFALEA
On the procedure: as §1, §2, §3

B1: IL-2 mutant G438 (ligand)
chain: APTSSSTRKTQLQLEHLLLDLQMILNGINNYKNPKLTRMLTFKFYMPWKATELKHLQCLEEELKPLEEVLNLAQSKNFHLRPRDLISNINVIVLELKGSETTFMCEYADETATIVEFLNRWITFAQSIISTLT
B1: the Kd worked out at 13.4 nM with IL-2Rα(CD25) and 15.3 nM with IL-2Rβ(CD122).

B2: IL-2 mutant G438P12 (ligand)
chain: APTSSSTRKTQLQLEHLMSDLQMILNGINNYKNPKLTRMLTFKFYMPRKATELKHLQCLEEELKPLEEVLNLAQSKNFHLRPRDLISNINVIVLELKGSETTFMCEYADETATIVEFLNRWITFAQSIISTLT
Regarding B2, the results for the Kd in the assay with IL-2Rα(CD25) and with IL-2Rβ(CD122) were 8.48 nM and 7.29 nM, respectively.

B3: IL-2 mutant G438P1 (ligand)
chain: APTSSSTRKTQLQLEHLMSDLQMILNGINNYKNPKLTRMLTFKFYMPWKATELKHLQCLEEELKPLEEVLNLAQSKNFHLRPRDLISNINVIVLELKGSETTFMCEYADETATIVEFLNRWITFAQSIISTLT
notes: also called GP1
In the case of B3, the Kd was found to be 17.9 nM in the assay with IL-2Rα(CD25) and 18.3 nM with IL-2Rβ(CD122).

B4: IL-2 mutant G438P10 (ligand)
chain: APTSSSTRKTQLQLEHLMSDLQMILNGINNYKNPKLTRMLTFKFYMPWKATELKHLQCLEEELKPLEEVLNLAQSKNFELDPRDLISNINVIVLELKGSETTFMCEYADETATIVEFLNRWITFAQSIISTLT
notes: also called GP10
As for B4, the Kd in the assay with IL-2Rα(CD25) came out at 36.1 nM; in the assay with IL-2Rβ(CD122), 30.5 nM.

B5: IL-2 mutant G438P9 (ligand)
chain: APTSSSTRKTQLQLEHLMSDLQMILNGINNYKNPKLTRMLTAKFYMPWKATELKHLQCLEEELKPLEEVLNLAQSKNFHLRPRDLISNINVIVLELKGSETTFMCEYADETATIVEFLNRWITFAQSIISTLT
notes: also called GP9
For B5, the values for the Kd in the assay with IL-2Rα(CD25) and with IL-2Rβ(CD122) were 34.7 nM and 26.4 nM, respectively.

B6: IL-2 mutant G438P7 (ligand)
chain: APTSSSTRKTQLQLEHLLLDLQMILNGINNYKNPKLTEMLEFKFYMPWKATELKHLQCLEEELKPLEEVLNLAQSKNFHLRPRDLISNINVIVLELKGSETTFMCEYADETATIVEFLNRWITFAQSIISTLT
notes: also called GP7
In the case of B6, the Kd amounted to 178000 nM in the assay with IL-2Rα(CD25), 64.2 nM in the assay with IL-2Rβ(CD122) and 35.4 nM with IL-2Rβ/γ receptor.

B7: IL-2 mutant G493 (ligand)
chain: APTSSSTRKTQLQLEHLLLDLQMILNGINNYKNPKLTRMLTFWFYMPWKATELWHLQCLEEELHPLEEVLNLAQSKNFHLRPRDLISNINVIVLELEGSETTFMCEYADETATIVEFLNRWITFAQSIISTLT
With B7, the binding result with IL-2Rα(CD25) and with IL-2Rβ(CD122) was “no binding” throughout.

B8: IL-2 mutant G438P15 (ligand)
chain: APTSSSTRKTQLQLEHLMSDLQMILNGINNYKNPKLTEMLEFKFRMPWKATELKHLQCLEEELKPLEEVLNFAQSKNFHLRPRDLISNINVIVLELKGSETTFMCEYADETATIVEFLNRWITFAQSIISTLT
notes: also called GP15
On to B8, for which the dissociation constant (Kd) is 170 nM with IL-2Rα(CD25), 87.1 nM in the assay with IL-2Rβ(CD122) and 136000 nM with IL-2Rβ/γ receptor.

B9: IL-2 mutant G438P14 (ligand)
chain: APTSSSTRKTQLQLEHLMSDLQMILNGINNYKNPKLTEMLEFKFYMPWKATELKHLQCLEEELKPLEEVLNLAQSKNFHLRPRDLISNINVIVLELKGSETTFMCEYADETATIVEFLNRWITFAQSIISTLT
notes: also called GP14
As for B9, the binding result with IL-2Rα(CD25) is “no binding”. Besides, the Kd with IL-2Rβ(CD122) was determined as 42600 nM; with IL-2Rβ/γ receptor it was 39.6 nM.

B10: IL-2 mutant G438P8 (ligand)
chain: APTSSSTRKTQLQLEHLLLDLQMILNGINNYKNPKLTRMLTFKFYMPWKATELKHLQCLEEELKPLEEVLNFAQSKNFHLDPRDLISNINVIVLELKGSETTFMCEYADETATIVEFLNRWITFAQSIISTLT
notes: also called GP8
Turning to B10, the values for the Kd with IL-2Rα(CD25), in the assay with IL-2Rβ(CD122) and with IL-2Rβ/γ receptor were 131 nM, 12 nM and 32.7 nM, respectively.

B11: IL-2 mutant G496 (ligand)
chain: APTSSSTRKTQLQLEHLLLDLQMILNGINNYKNPKLTRMLTFWFYMPWKATELWHLQCLEEELHPLEEVLNLAQSKNFHLRPRDLISNINVIVLELRGSETTFMCEYADETATIVEFLNRWITFAQSIISTLT
Turning to B11, the binding result with IL-2Rα(CD25) and with IL-2Rβ(CD122) was “no binding” throughout.

B12: IL-2 mutant G438P16 (ligand)
chain: APTSSSTRKTQLQLEHLMSDLQMILNGINNYKNPKLTEMLEFKFYMPWKATELKHLQCLEEELKPLEEVLNLAQSKNFHLRARDLIDNINVIVLELKGSETTFMCEYADETATIVEFLNRWITFAQSIISTLT
notes: also called GP16
As to B12, the Kd in the assay with IL-2Rα(CD25) was 353 nM; with IL-2Rβ(CD122), 142 nM.

B13: IL-2 mutant G438P3 (ligand)
chain: APTSSSTRKTQLQLEHLLLDLQMILNCINNYKNPKLTRMLTFKFYMPWKATELKHLQCLEEELKPLEEVLNLAQSKNCHLRPRDLISNINVIVLELKGSETTFMCEYADETATIVEFLNRWITFAQSIISTLT
notes: also called GP3
Take B13: the values for the Kd with IL-2Rα(CD25) and in the assay with IL-2Rβ(CD122) were 26.4 nM and 12.1 nM, respectively.

B14: IL-2 mutant G498 (ligand)
chain: APTSSSTRKTQLQLEHLLLDLQMILNGINNYKNPKLTRMLTFWFYMPWKATELWHLQCLEEELHPLEEVLNLAQSKNFHLRPRDLISNINVIVLELFGSETTFMCEYADETATIVEFLNRWITFAQSIISTLT
Take B14: the binding result with IL-2Rα(CD25) and with IL-2Rβ(CD122) was “no binding” throughout.

B15: IL-2 mutant G438P2 (ligand)
chain: APTSSSTRKTQLQLEHLLLDLQMILNGINNYKNPELTRMLTFDFYMPWKATELKHLQCLEEELKPLEEVLNLAQSKNFHLRPRDLISNINVIVLELKGSETTFMCEYADETATIVEFLNRWITFAQSIISTLT
notes: also called GP2
Take B15: the Kd in the assay with IL-2Rα(CD25) was determined as 68.9 nM; in the assay with IL-2Rβ(CD122) it was 18.3 nM.

B16: IL-2 mutant G438P6 (ligand)
chain: APTSSSTRKTQLQLEHLLLDLQMILNGINNYKNPKLTRMLTADFYMPWKATELKHLQCLEEELKPLEEVLNLAQSKNFHLRPRDLISNINVIVLELKGSETTFMCEYADETATIVEFLNRWITFAQSIISTLT
notes: also called GP6
Regarding B16, the Kd was 119 nM with IL-2Rα(CD25) and 52.3 nM with IL-2Rβ(CD122).

B17: IL-2 mutant G438P17 (ligand)
chain: APTSSSTRKTQLQLEHLMSDLQMILNGINNYKNPKLTRMLTFKFYMPWKATELKHLQCLEEELKPLEEVLNLAQSKNFHLDTEDLIDNINVIVLELKGSETTFMCEYADETATIVEFLNRWITFAQSIISTLT
notes: also called GP17
As to B17, the Kd with IL-2Rα(CD25) came out at 94.9 nM; with IL-2Rβ(CD122), 61 nM.

B18: IL-2 mutant G438P19 (ligand)
chain: PTSSSTRKTQLQLEHLMSDLQMILNGINNYKNPKLTRMLTFKFYMPWKATELKHLQCLEEELKPLEEVLNLAQSKNFHLRPRDLISNINVIVLELKGSETTFMCEYADETATIVEFLNRWITFSQSSSQH
notes: Printed: lack of the first amino acid A, K8R/L18M/L19S/K48W/A125S, IISTLT from position 128 mutated to SSQH; also called GP19
As for B18, the Kd was 38.6 nM with IL-2Rα(CD25) and 12.9 nM in the assay with IL-2Rβ(CD122).
